Results as given in article doi:10.1101/2024.09.05.611430 (bioRxiv, 2024).
Values joined by “and” are separate entries in the source; they are usually repeats but may differ in a detail not shown here. Equal values may be shown once.

Biological target: the molecule itself
Assay: cryo-EM structure

B1: Mpn444 (Mycoplasma pneumoniae lipoprotein, recombinant, without the N-terminal signal sequence, aa 28-1325) (natural protein, UniProt P75334 28-1325, looked up)
chain: CAQPTASTVEGLFKPSSAFADRTDFSLSSILQKSLINRESFNQYLAMRLAPVLRTFYEDNYDTDIKERLNGFTADTDNAFVSQEQNLRNQFRENYLVHLQTDIFDNTGGNQAAWKLRDVNNKIIDDFISRIFAKNFVEYVQDGVGPLTKPTKSLIENTSNFKNIKLQPKFVNKNAKLKINNDAVYAAIQDKLLDQFITNENPNLVSRVVFTNETPVDGFDNYFNTKVIQSPTPSYQFQVFNKYNQQSGGTKGANGFNLLASNLKSYKNDQSKGIDIPNKFSSDSGGKLLLKASDMFDTFDPSFSAAFIQGYLALQKKSKGADSKEVDSLIKDKSIIENFFVDNNTQAAAAARAASSSSEGTIQLKTASDGGGTTQSTVHKTDLVKIFGDKDVFAGEYKQQIGNTNANQTGGGGSGGGGGTSTGSSTGSSTETTTGNSSKAVVDLIEVKKDSSSQPDYILSRGKDGIHLMAVDGGSHYLTESGRDVAKQKKFLLFRALQTKYGLVDTDTTYDFKLFDEVKKYFDTNRILFLFEALLDLSSDTNNKDNFLSYPQFKKFADSIKSIEKDLKELVQAHYKQAVFNETAVAENKVTLKLAERNQPFIDNERNNQIEQNGLAAKLPYEQDAKTGHYNDLGNYYKDIIDNVDKKGTSTVKTTSSNTGQTKNFSEEVVSKLKDNKKKVEEAAKKHVEALKVFTIPSPLYSQVILVQTKLSFTPESTSLGLNLALNNYLTSTELQNSIKLSYFQEDEAFKKIIDITNLTFSQQSGGTGGTNGNNNLTADNWKIFKETYLLDLFESQAQKSIFGHVGSSDKNSSTKTGIEGVLDTLYSSLNLEERLDSDDVIDYLSYLYTAHWLLKDNLKNYKQSLQSKLSRTSNAFLVWSVDSEKNKNDSQSTLSSTASSTSNTGLIQLRSVVSLAQNQAAGQGGDNNSDITQTEVKNPNFVFGSSVYDWTNSKTPEVNRAADDTSSFFYTKSSSSSTGAAQSSATVLRSLNQASGMTTKTAKNRYGFRGIVTSSTSGSLPEAVSRRLFKQFVNQTEKGVKVGGQMLITTAKSGKATLVLKQQADDAESTTNNAYKGALFSFGSMDNLKNIINGIQTQTEFDALYNHLTSDLNIDVTGVDKNKTLTEQKTSLTSFVDSNFKQSTQSAQRGDTSARSARSATVQIKKTQEDNQNTNYKDVFSRFDGYIGDNKVEEKNYTSYQFLSDGGKYHATFVKQVNLDDVEKIGTDSLKQEDSSKDKRLNLSLEEFLAAIALEALDPNNQTQAINALISGNKKGLVKVGDFRIFSSISAQWVRRF
Question: With B1 as the protein, how does the “stoichiometry N” value read?
Answer: 3 and 2
